Among the data in patent US6458539, “Photoselection of nucleic acid ligands” (Somalogic, Inc.) are Kd, activity and binding signal values, retold here.

For data set [1], the target named is PDGF (platelet derived growth factor) (UniProt P01127). The data set is described as follows: filter. As to conditions: 5-bromo-2'-deoxyuridine (BrdU) substituted for T.
For data set [2] the target is unchanged. As to conditions: 5-bromo-2'-deoxyuridine (BrdU) substituted for T; photocrosslinking rate, 308 nm.
Data set [3] concerns the target T1, bFGF(155) (basic fibroblast growth factor, FGF2) (Homo sapiens, UniProt P09038 SEQ:1-155). The data set is described as follows: filter; 1xPBS, 2 mM MgCl2, 0.01% HSA, 1 mM DTT, 37 C; Table 7 gives a different KD of 5.3e-9 M; Table 2 prints CACCC where SEQ 70 has CAGCC. As to conditions: tags: expressed in E. coli; Bachem California lot SN 433; label: 5'-32P. The procedure:
(§1) Nitrocellulose filter binding was used to assess ligand affinity for bFGF_{(155)}. This was accomplished by first preparing 2,000 cpm/30 μL of 5'-^32P-radiolabeled material (≈1–5 fmol) of each sequence by dilution with 1×crosslink binding buffer (XLBB) (1×PBS/2 mM MgCl_2/0.01% HSA/1.0 mM dithiothreitol (DTT)) to give 2×DNA. Each 2×oligonucleotide sample was mixed with 30 μL of each bFGF_{(155)} concentration to be evaluated in a 96 well tray. bFGF_{(155)} concentrations were prepared by serial dilution with 1×XLBB. After incubation at 37° C. for 15 minutes, a multi-pipeter was used to load 40 μL of each DNA/bFGF_{(155)} mixture onto a pre-washed Gibco nitrocellulose binding curve apparatus followed by washing with a dissociation wash buffer. Bound DNA was then measured by phosphorimage and a binding curve for the percent bound DNA vs. [bFGF] was calculated by Kaleidograph ver. 3.09 software (Synergy Software Co., Reading, Pa).

Data set [4] concerns the target VEGF (vascular endothelial growth factor) (UniProt P15692-4 P15692-4:27-191). The data set is described as follows: filter; 1xPBS, 2 mM MgCl2, 37 C. The conditions noted are these: tags: R&D Systems; chain copies: 2; label: 5'-32P.
The target in data set [5] is T1, bFGF(155) (basic fibroblast growth …). The data set is described as follows: filter; 1xPBS, 2 mM MgCl2, 0.01% HSA, 1 mM DTT, 37 C; Table 7 gives a different KD of 1.3e-10 M. As to conditions: tags: expressed in E. coli; Bachem California lot SN 433; label: 5'-32P. The procedure: as §1

Sequence of PDGF (platelet derived growth factor) (P01127 82-190): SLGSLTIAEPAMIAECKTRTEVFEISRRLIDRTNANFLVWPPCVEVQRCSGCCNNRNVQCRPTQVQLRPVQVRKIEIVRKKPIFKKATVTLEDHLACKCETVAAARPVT
T1 sequence (P09038 134-288): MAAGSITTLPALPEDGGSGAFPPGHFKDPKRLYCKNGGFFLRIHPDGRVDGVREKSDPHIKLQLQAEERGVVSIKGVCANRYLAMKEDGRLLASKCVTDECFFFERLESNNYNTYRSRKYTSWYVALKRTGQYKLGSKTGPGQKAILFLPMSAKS
Sequence of VEGF (vascular endothelial growth factor) (P15692 other isoform, or with tags, fused parts or gaps): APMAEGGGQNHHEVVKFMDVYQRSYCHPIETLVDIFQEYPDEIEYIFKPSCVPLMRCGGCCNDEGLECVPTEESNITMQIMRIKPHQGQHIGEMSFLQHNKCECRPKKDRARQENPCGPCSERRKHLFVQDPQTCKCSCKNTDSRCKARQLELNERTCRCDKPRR

The term Kd denotes the equilibrium constant for the complex coming apart. For the molecule “GGGAGGACGATGCGGGCGAAGGCACACCGAGTTCATAGTATCCCACAGACGACGAGCGGGA [06.15]”, in data set [1] (1500-fold weaker than bFGF (Table 6), Table 3 states relative KD >1000), the equilibrium dissociation constant (Kd) stood at 200 nM. The same molecule displayed an activity in data set [2] of 65000 M⁻¹ s⁻¹.
“GGGAGGACGATGCGGTGACGTAAGAGTGTAATCGATGCAGCCTGGCAGACGACGAGCGGGA [06.50]” had a Kd in data set [1] (53-fold weaker than bFGF) of 280 nM. Further, the activity in data set [2] was 61000 M⁻¹ s⁻¹.

B1: 06.50 (ssDNA)
DNA: GGGAGGACGATGCGGTGACGTAAGAGTGTAATCGATGCAGCCTGGCAGACGACGAGCGGGA
modifications: 5-bromo-2'-deoxyuridine (BrdU) substituted for T
In the case of B1, the Kd in data set [3] stood at 0.56 nM.

B2: 06.15 (ssDNA)
DNA: GGGAGGACGATGCGGGCGAAGGCACACCGAGTTCATAGTATCCCACAGACGACGAGCGGGA
modifications: 5-bromo-2'-deoxyuridine (BrdU) substituted for T
In the case of B2, the binding signal in data set [4] was > 1000 fold KD relative to bFGF. In addition, the Kd in data set [5] worked out at 0.016 nM.
